# From US20030236190A1 (published 2003)
# Positions of bridges follow the written chain, without caps; N, C: chain ends. No end group written: not given here.
# B1: 464 (other, not shown: large carriers; small tags and cut ends)
# chain: NNNNLGIEGRISEFIEGRDYKDDDDKFHENFYDWFVRQVSAAGAPVPYPDPLEPRAA
# notes: MBP fusion
# B2: 463 (other, not shown: large carriers; small tags and cut ends)
# chain: NNNNLGIEGRISEFIEGRAQPAMAFHENFYDWFVRQVSGGSFHENFYDWFVRQVSAAAGAPVPYPDPLEPRAA
# notes: MBP fusion
# B3: 437 (other, not shown: large carriers; small tags and cut ends)
# chain: NNNNLGIEGRISEFIEGRAQPAMAFHENFYDWFVRQVSAAAGAPVPYPDPLEPRAA
# notes: MBP fusion
# B4: 436 (other, not shown: large carriers; small tags and cut ends)
# chain: NNNNLGIEGRISEFIEGRAQPAMAFHENFYDWFVRQVSGGSGGSGGSFHENFYDWFVRQVSAAAGAPVPYPDPLEPRAA
# notes: MBP fusion
# B5: 435 (other, not shown: large carriers; small tags and cut ends)
# chain: NNNNLGIEGRISEFIEGRAQPAMAFHENFYDWFVRQVSGGSFHENFYDWFVRQVSGGSFHENFYDWFVRQVSAAAGAPVPYPDPLEPRAA
# notes: MBP fusion
# B6: D815-6aa-G33 (peptide)
# peptide: WLDQERAWLWCEISGRGCLSGGSGGSGIISQSCPESFYDWFAGQVSDPWWCW
# notes: Site 2-Site 1 dimer peptide, recombinant; also called D815-G33 (6 aa linker); D815-6-G33
# B7: D815-12aa-RP9 (peptide)
# peptide: WLDQERAWLWCEISGRGCLSGGSGGSGGSGGSGSLDESFYDWFERQLGKK
# modifications: not fully specified (bridges); cysteine pairing not given here
# notes: Site 2-Site 1 dimer peptide, recombinant; also called D815-RP9 (12 aa linker); D815-12-RP9
# B8: recombinant peptide surrogate G33 (rG33) (peptide)
# peptide: GIISQSCPESFYDWFAGQVSDPWWCW
# notes: Recombinant form
# B9: RP9 (peptide)
# peptide: GSLDESFYDWFERQLG
# notes: also called RP9 minus terminal lysines
# B10: D815-6aa-RP9 (peptide)
# peptide: WLDQERAWLWCEISGRGCLSGGSGGSGSLDESFYDWFERQLGKK
# notes: Site 2-Site 1 dimer peptide, recombinant; also called D815-RP9 (6 aa linker); D815-6-RP9
# B11: recombinant peptide surrogate D815 (rD815) (peptide)
# peptide: WLDQERAWLWCEISGRGCLS
# modifications: disulfide 11-18 (inferred)
# notes: Recombinant form
# B12: 20E2 (peptide)
# peptide: DYKDFYDAIDQLVRGSARAGGTRD
# notes: also called 20E2 (D118)
# B13: C1 (peptide)
# peptide: CWARPCGDAANFYDWFVQQAS
# notes: also called C1 (D112)
# B14: RP16 (peptide)
# peptide: VMDARDDPFYHKLSELVT
# B15: RP15 (peptide)
# peptide: SQAGSAFYAWFDQVLRTV
# B16: RP4 (peptide)
# peptide: PPWGARFYDAIEQLVFDNL
# B17: G33 (peptide)
# peptide: GIISQSCPESFYDWFAGQVSDPWWCW
# B18: H2C (peptide)
# peptide: FHENFYDWFVQRVSKK
# notes: also called H2C (D117)
# B19: E8 (peptide)
# peptide: GGTVWPGYEWLRNA
# B20: R20β-E8-IR (peptide)
# peptide: VRGFQGGTVWPGYEWLRNAA
# modifications: not fully specified (N-terminus, C-terminus)
# B21: 20E2A-3-A4-IGFR (peptide)
# peptide: AGSVTSFYDAMEQLVATGTSA
# B22: 40F-4-D1-IGFR (peptide)
# peptide: LSCLAYSRHGIWRPSTDLGLGRSVGEGSVSTRWRGYDWFE
# B23: S399 (peptide)
# peptide: ESFYDWFERQL
# notes: Synthetic truncated RP9 monomer peptide
# B24: S395 (peptide)
# peptide: GSLDESFYDWFERQL
# notes: as for B23
# B25: S400 (peptide)
# peptide: ESFYDWFERQ
# notes: as for B23
# B26: S394 (peptide)
# peptide: GSLDESFYDWFERQ
# notes: as for B23
# B27: S386 (peptide)
# peptide: GSLDESFYDWFERQLG
# notes: as for B9
# B28: D815 (peptide)
# peptide: WLDQERAWLWCEISGRGCLS
# modifications: disulfide 11-18 (inferred)
# B29: G33 (peptide)
# peptide: GIISQSCPESFYDWFAGQVSDPWWCW
# B30: 20E2 (peptide)
# peptide: DYKDFYDAIDQLVRGSARAGGTRD
# B31: S415 (peptide)
# chain: ESFYDWFERQLGK
# modifications: not fully specified (residue 13, C-terminus); also: dimer, two chains joined C-terminus to C-terminus through linker 23
# B32: D8B12 (peptide)
# peptide: WLEQERAWIWCEIQGSGCRA
# modifications: not fully specified (bridges); cysteine pairing not given here
# B33: S173 (peptide)
# peptide: LDALDRLMRYFEERPSL
# B34: A6 (peptide)
# peptide: SAKNFYDWFVKK
# Target: human insulin receptor (HIR) (human, UniProt P06213 28-1382, limits assumed)
# Test: Kd(HIR), insulin competition
row,Binder,Kd [nM]
1,B1,39
2,B2,960
3,B3,8300
4,B4,410
5,B5,2000

# Target: T1, recombinant human IGF-1R (rhIGF-1R) (human, UniProt P08069 31-935)
# T1 construct: extracellular domain; Coated on plates in the TRF assay and europium-labelled (LANCE) in the TR-FRET assays; also called rhIGE-1R; Eu3+-rhIGF-1R
# Test: heterogeneous TRF (DELFIA) competition with b-rhIGF-1 for plate-coated rhIGF-1R
# Method: (§1) The plates were incubated for 2 hr at RT.
row,Binder,IC50 [nM]
1,B6,624
2,B7,3.22
3,B8,1450
4,B9,417
5,B10,35.7
6,B11,4080

# Target: T1, recombinant human IGF-1R (rhIGF-1R)
# Test: ratio of the IC50 at rhIGF-1R (TR-FRET) to the IC50 at sIR-Fc (FP); higher values indicate higher affinity for IR than IGF-1R
row,Binder,Binding Ratio IGF-1R/IR
1,B12,1.9
2,B13,0.19
3,B14,0.15
4,B15,25
5,B16,476
6,B9,1.4
7,B17,1.3

# Target: T2, soluble human insulin receptor-immunoglobulin heavy chain chimera (sIR-Fc) (human, UniProt P06213 28-956, limits assumed)
# T2 construct: extracellular domain; also called sIR-Ec; not shown: immunoglobulin heavy chain constant domains
# Test: fluorescence polarization competition with FITC-RP9 for sIR-Fc
row,Binder,IC50 [nM]
1,B18,66
2,B12,51
3,B14,6400
4,B15,28
5,B16,17
6,B9,24
7,B17,139
8,B19,206

# Target: T1, recombinant human IGF-1R (rhIGF-1R)
# Test: TR-FRET competition with b-20E2 for rhIGF-1R
row,Binder,IC50 [nM]
1,B12,100
2,B13,10
3,B14,961
4,B15,706
5,B16,8100
6,B9,33
7,B17,178

# Target: T3, Soluble IGF-1R (UniProt P08069 31-935, limits assumed)
# T3 construct: extracellular domain; Bought reagent; also called sIGF-1R; insulin-like growth factor receptor
# Test: phage ELISA; ratio over background for IGF-1R divided by that for IR
row,Binder,IGF-1R/IR ratio comparison [ratio]
1,B20,9.7
2,B21,1.4
3,B22,13.1

# Target: T1, recombinant human IGF-1R (rhIGF-1R)
# Test: column 'nM Ki app Kd' of Table 15 (IGF-1R summary); values match the TRF competition with b-rhIGF-1 on rhIGF-1R of Table 20
# Method: as §1
row,Binder,Ki [nM]
1,B6,624
2,B7,3
3,B8,1450
4,B9,417
5,B10,36
6,B11,4080

# Target: T4, Human insulin receptor (HIR), purified from transfected cells after solubilization with Triton X-100 (human, UniProt P06213 28-1382, limits assumed)
# T4 construct: Detergent-solubilised receptor
# Test: competition with 125I-insulin for solubilised HIR, PEG precipitation; Kd calculated from the competition curve
row,Binder,Kd [nM]
1,B23,91
2,B24,91
3,B25,630
4,B26,81
5,B27,320

# Target: human IGF-1R on FDCP-2 cells (human, UniProt P08069 31-1367)
# Test: cell-based or functional assay
row,Binder,"IGF-1 agonist (proliferation) assay, FDCP-2 cells; ED50 [µM]"
1,B28,~2
2,B29,~10
3,B30,> 10

# Target: T5, Insulin receptor (IR) prepared according to Bass et al., 1996 (human, UniProt P06213 28-956)
# T5 construct: extracellular domain; also called soluble IR (Bass construct); sIR-Fc; not shown: immunoglobulin heavy chain constant domains of the Bass chimera
# Test: not given
row,Binder,"ratio over background, IR [ratio over background]"
1,B20,3.6
2,B21,1.8
3,B22,0.3

# Target: T4, Human insulin receptor (HIR), purified …
# Test: competition with 125I-insulin for solubilised HIR, PEG precipitation; Kd calculated from the competition curve
# Remark: another data set of the same source
row,Binder,Kd [nM]
1,B23,91
2,B24,91
3,B31,100
4,B25,630
5,B26,81

# Target: human IGF-1R on FDCP-2 cells (human, UniProt P08069 31-1367)
# Test: cell-based or functional assay
# Remark: another data set of the same source
Binder,Max Action,ED50 Growth [nM],Ki/ED50,IC50 Antag. [nM]
B6,< 10%,–,–,–
B7,100,10000,0.0003,–
B8,> 50,500,2.9,–
B9,< 10%,–,0.5,900
B10,> 50%,50,0.8,> 500
B11,> 50%,500,–,–

# Target: T5, Insulin receptor (IR) prepared …
# Test: phage ELISA; ratio over background for IR divided by that for IGF-1R
row,Binder,IR/IGF-1R ratio comparison [ratio]
1,B20,0.1
2,B21,0.7
3,B22,0.1

# Target: T1, recombinant human IGF-1R (rhIGF-1R)
# Test: TR-FRET competition with b-20E2 for Eu3+-rhIGF-1R
row,Binder,IC50 [nM]
1,B18,460
2,B12,104
3,B13,0.88
4,B32,11300
5,B33,6290
6,B9,39.3
7,B34,31000

# Target: T3, Soluble IGF-1R
# Test: not given
row,Binder,"ratio over background, IGF-1R [ratio over background]"
1,B20,34.9
2,B21,2.5
3,B22,4.6
